According to US20160053025A1 (SAMSUNG ELECTRONICS, published 2016):

Assays:
Test in all cases: ELISA, antibody coated, FLAG-tagged mutant Ang2 RBD detected with anti-FLAG-HRP
[1] = molecular target: T1, Ang2 RBD Q418A, FLAG-tagged (human, UniProt O15123 281-496, limits assumed)
T1 chain: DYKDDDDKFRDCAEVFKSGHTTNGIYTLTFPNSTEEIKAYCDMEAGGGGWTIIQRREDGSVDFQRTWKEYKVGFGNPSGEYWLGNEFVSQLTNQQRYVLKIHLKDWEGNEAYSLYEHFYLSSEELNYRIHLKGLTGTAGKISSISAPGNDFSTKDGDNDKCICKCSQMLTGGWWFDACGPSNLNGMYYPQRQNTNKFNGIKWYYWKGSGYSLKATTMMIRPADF
Method: (§1) To verify the epitope (or specific binding site) of the anti-Ang2 antibody prepared in Reference Example 2.3, an ELISA was performed using a recombinant protein where a receptor binding domain (RBD) of Ang2 protein in the form of being tagged with Flag was mutated by artificial means.
(§2) Each well of a 96-well MaxiSorp™ flat-bottom plate (Nunc) was coated with 50 ul (microliter) of 1000 nM antibody. Then, the plate was washed five times with 0.05% (v/v) Tween-20-containing PBS (PBST) and blocked with 1% (v/v) BSA-containing PBS at a room temperature for 2 hours. 250 ng of each mutant Ang2 protein obtained by substituting S417, Q418, P419, N421, 1434, D448, A449, P452, Y460, N467, K468, or F469 residue of Ang2 protein tagged with a FLAG sequence ([…], Sigma) at its N-terminal with alanine was added to each well of the plate, which was then allowed to react at a room temperature for 2 hours.
(§3) Finally, 50 ul of TMB substrates (Cell signaling) was added to each well of the plate to induce color development at a room temperature for 3 min. and the reaction was ceased by the addition of 50 ul of Stop solution (Cell signaling) and then, OD450 values were measured on a plate reader (Molecular Devices). By comparing binding affinities with mutated Ang2 to those of unmutated Ang2, each epitope of Ang2 antibodies was identified. The obtained measurement results of the binding affinities (%) with mutant Ang2 against the binding affinity with the native Ang2 are shown in the following Table 13.

[2] = molecular target: T2, Ang2 RBD N421A, FLAG-tagged (human, UniProt O15123 281-496, limits assumed)
T2 chain: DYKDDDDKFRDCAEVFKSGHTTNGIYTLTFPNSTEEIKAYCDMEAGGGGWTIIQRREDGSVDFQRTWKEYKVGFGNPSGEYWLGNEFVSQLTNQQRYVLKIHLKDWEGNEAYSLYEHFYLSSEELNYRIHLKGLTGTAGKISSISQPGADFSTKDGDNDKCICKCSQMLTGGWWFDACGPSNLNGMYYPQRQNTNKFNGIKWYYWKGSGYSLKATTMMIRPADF
Method: as §1, §2, §3

[3] = molecular target: T3, Ang2 RBD I434A, FLAG-tagged (human, UniProt O15123 281-496, limits assumed)
T3 construct: Printed as '1434', read as I434
T3 chain: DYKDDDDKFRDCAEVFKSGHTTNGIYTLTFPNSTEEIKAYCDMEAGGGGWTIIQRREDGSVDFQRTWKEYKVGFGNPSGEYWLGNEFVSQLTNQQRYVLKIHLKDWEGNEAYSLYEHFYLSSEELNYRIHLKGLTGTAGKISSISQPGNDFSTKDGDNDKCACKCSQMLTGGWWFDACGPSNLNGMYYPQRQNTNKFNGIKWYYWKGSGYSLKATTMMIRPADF
Method: as §1, §2, §3

[4] = molecular target: T4, Ang2 RBD D448A, FLAG-tagged (human, UniProt O15123 281-496, limits assumed)
T4 chain: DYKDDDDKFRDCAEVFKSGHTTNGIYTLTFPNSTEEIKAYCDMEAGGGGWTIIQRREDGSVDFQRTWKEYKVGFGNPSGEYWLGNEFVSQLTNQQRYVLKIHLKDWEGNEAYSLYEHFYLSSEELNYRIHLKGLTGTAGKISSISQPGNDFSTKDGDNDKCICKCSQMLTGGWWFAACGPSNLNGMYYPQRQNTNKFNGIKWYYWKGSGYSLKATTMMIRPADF
Method: as §1, §2, §3

[5] = molecular target: T5, Ang2 RBD P452A, FLAG-tagged (human, UniProt O15123 281-496, limits assumed)
T5 chain: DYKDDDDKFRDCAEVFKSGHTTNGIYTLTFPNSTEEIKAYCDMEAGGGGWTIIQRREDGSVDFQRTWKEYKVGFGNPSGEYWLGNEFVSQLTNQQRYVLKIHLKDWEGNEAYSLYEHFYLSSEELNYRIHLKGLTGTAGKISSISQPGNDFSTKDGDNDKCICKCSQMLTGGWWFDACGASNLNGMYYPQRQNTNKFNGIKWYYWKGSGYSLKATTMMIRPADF
Method: as §1, §2, §3

[6] = molecular target: T6, Ang2 RBD K468A, FLAG-tagged (human, UniProt O15123 281-496, limits assumed)
T6 chain: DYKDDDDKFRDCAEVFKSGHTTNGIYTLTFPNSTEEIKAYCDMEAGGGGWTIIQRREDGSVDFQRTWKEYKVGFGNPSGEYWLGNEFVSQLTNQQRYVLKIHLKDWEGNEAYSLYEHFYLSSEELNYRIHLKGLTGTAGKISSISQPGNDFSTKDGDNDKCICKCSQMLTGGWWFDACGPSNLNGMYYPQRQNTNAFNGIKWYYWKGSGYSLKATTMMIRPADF
Method: as §1, §2, §3

[7] = molecular target: T7, Ang2 RBD F469A, FLAG-tagged (human, UniProt O15123 281-496, limits assumed)
T7 chain: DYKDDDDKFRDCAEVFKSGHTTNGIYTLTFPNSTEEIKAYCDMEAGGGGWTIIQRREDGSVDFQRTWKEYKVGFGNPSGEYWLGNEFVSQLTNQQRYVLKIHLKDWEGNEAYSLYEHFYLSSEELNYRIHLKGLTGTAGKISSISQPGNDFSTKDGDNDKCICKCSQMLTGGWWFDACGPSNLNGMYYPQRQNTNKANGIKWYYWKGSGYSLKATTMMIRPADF
Method: as §1, §2, §3

binding affinity (%) with mutant Ang2 against the binding affinity with the native Ang2 [1]: 38.9% | binding affinity (%) with mutant Ang2 against the binding affinity with the native Ang2 [2]: 109% | binding affinity (%) with mutant Ang2 against the binding affinity with the native Ang2 [3]: 109% | binding affinity (%) with mutant Ang2 against the binding affinity with the native Ang2 [4]: 105% | binding affinity (%) with mutant Ang2 against the binding affinity with the native Ang2 [5]: 102% | binding affinity (%) with mutant Ang2 against the binding affinity with the native Ang2 [6]: 110% | binding affinity (%) with mutant Ang2 against the binding affinity with the native Ang2 [7]: 109%
B1: SAIT-ANG2-AB-m10D6 (antibody, V domains shown)
VH: DVQLQESGPDLVKPSQSLSLTCTVTGYSITSDYAWNWIRQFPGNKLEWMGYINYSGNTDYNPSLKSRSSITRDTSKNQFFLQLNSVTTGDTATYYCARGNFEGAMDYWGQGTSVTVSS
VL: SIVMTQTPKFLLVSAGDRVTITCKASQSVSNDVAWYQQKPGQSPKLLIYYASNRYPGVPDRFTGSGYGTDFTFTISTVQAEDLAVYFCQQDYSSPWTFGGGTKLEIK
notes: Mouse monoclonal antibody purified from a hybridoma (KCLRF-BP-00295); it is not applied here; also called mouse antibody 10D6; 10D6 antibody
